Results on 94 variants are retold here after the supplement of paper PMC10567573.

Sequences and labels used below:
B1: PPP2R2C (parent)
chain: YSSSKGSLRLCDMRAAALCDKHSK
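Note: lentivirally expressed fusions sorted by FACS into six bins by GFP to DsRed ratio, PSI derived from sequencing read proportions per bin multiplied by bin number.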

The data set covers variants of B1. Kind of data set: protein stability index of a GFP-peptide fusion (GPS, HEK-293T) (PSI 1-6); higher = more stable. The settings on record: c terminus: a fixed tail appended.
Take YSSSKGSLRLCDMRAAALCEKHSK [D20E]: the protein stability index came out at 1.97.
On to YSSSKGSLRLCDMRAAALCQKHSK [D20Q], for which the protein stability index was 2.33.
Next, YSSSKGSLRLCDMRAAALCRKHSK [D20R]: 3.31.
With YSSSKGSLRLCDMRAAALCVKHSK [D20V], the protein stability index came out at 2.58.
For YSSSKGSLRLCDMRAAALCHKHSK [D20H], the protein stability index stood at 2.64.
In the case of YSSSKGSLRLCDMRAAALCFKHSK [D20F], the protein stability index came out at 2.19.
As for YSSSKGSLRLCDMRAAALCWKHSK [D20W], the protein stability index came out at 2.31.
YSSSKGSLRLCDMRAAALCKKHSK [D20K]: the protein stability index was 2.6.
Regarding YSSSKGSLRLCDMRAAALCMKHSK [D20M], the protein stability index was found to be 1.98.
As for YSSSKGSLRLCDMRAAALCAKHSK [D20A], the protein stability index was found to be 1.64.
Turning to YSSSKGSLRLCDMRAAALCYKHSK [D20Y], the protein stability index was 1.96.
In the case of YSSSKGSLRLCDMRAAALCTKHSK [D20T], the protein stability index stood at 2.18.
In the case of YSSSKGSLRLCDMRAAALCGKHSK [D20G], the protein stability index was 2.62.
As to YSSSKGSLRLCDMRAAALCSKHSK [D20S], the protein stability index is 1.81.
Next, YSSSKGSLRLCDMRAAALCIKHSK [D20I]: 2.17; YSSSKGSLRLCDMRAAALCLKHSK [D20L]: 2.05.
Turning to YSSSKGSLRLCDMRAAALCNKHSK [D20N], the protein stability index came out at 2.21.
On to YSSSKGSLRLCDMRAAALCPKHSK [D20P], for which the protein stability index came to 2.25.
YSSSKGSLRLCDMRAAALCCKHSK [D20C]: the protein stability index turned out to be 1.41.
Regarding YSSSKGSLRLCDMRAAALCDKHEK [S23E], the protein stability index is 1.81.
Consider YSSSKGSLRLCDMRAAALCDKHLK [S23L], for which the protein stability index is 1.93.
For the variant YSSSKGSLRLCDMRAAALCDKHCK [S23C], the protein stability index was determined as 1.12.
Regarding YSSSKGSLRLCDMRAAALCDKHPK [S23P], the protein stability index is 1.42.
Take YSSSKGSLRLCDMRAAALCDKHMK [S23M]: the protein stability index turned out to be 2.19.
As to YSSSKGSLRLCDMRAAALCDKHHK [S23H], the protein stability index was 2.96.
On to YSSSKGSLRLCDMRAAALCDKHFK [S23F], for which the protein stability index was found to be 2.57.
Next, YSSSKGSLRLCDMRAAALCDKHIK [S23I]: 2.01.
As to YSSSKGSLRLCDMRAAALCDKHAK [S23A], the protein stability index amounted to 1.79.
Next, YSSSKGSLRLCDMRAAALCDKHGK [S23G]: 1.76.
In the case of YSSSKGSLRLCDMRAAALCDKHVK [S23V], the protein stability index came to 2.4.
YSSSKGSLRLCDMRAAALCDKHTK [S23T]: the protein stability index turned out to be 1.88.
For the variant YSSSKGSLRLCDMRAAALCDKHRK [S23R], the protein stability index worked out at 1.78.
YSSSKGSLRLCDMRAAALCDKHYK [S23Y]: the protein stability index is 2.52.
Consider YSSSKGSLRLCDMRAAALCDKHDK [S23D], for which the protein stability index amounted to 1.86.
Turning to YSSSKGSLRLCDMRAAALCDKHWK [S23W], the protein stability index was 1.35.
With YSSSKGSLRLCDMRAAALCDKHQK [S23Q], the protein stability index is 1.85.
For YSSSKGSLRLCDMRAAALCDKHNK [S23N], the protein stability index is 1.43.
On to YSSSKGSLRLCDMRAAALCDKHKK [S23K], for which the protein stability index stood at 1.82.
For YSSSKGSLRLCDMRAAALTDKHSK [C19T] the value was 1.71; for YSSSKGSLRLCDMRAAALYDKHSK [C19Y], 2.01; for YSSSKGSLRLCDMRAAALSDKHSK [C19S], 1.73.
Turning to YSSSKGSLRLCDMRAAALVDKHSK [C19V], the protein stability index is 1.4.
Turning to YSSSKGSLRLCDMRAAALWDKHSK [C19W], the protein stability index was determined as 1.69.
As to YSSSKGSLRLCDMRAAALCDKGSK [H22G], the protein stability index was found to be 2.31.
For YSSSKGSLRLCDMRAAALCDKDSK [H22D] the value was 1.79.
Next, YSSSKGSLRLCDMRAAALCDKQSK [H22Q]: 1.53; YSSSKGSLRLCDMRAAALCDKASK [H22A]: 2.02; YSSSKGSLRLCDMRAAALCDKYSK [H22Y]: 1.91.
For YSSSKGSLRLCDMRAAALCDKFSK [H22F], the protein stability index amounted to 1.53.
As to YSSSKGSLRLCDMRAAALCDKTSK [H22T], the protein stability index was determined as 2.11.
Next, YSSSKGSLRLCDMRAAALCDKMSK [H22M]: 1.7; YSSSKGSLRLCDMRAAALCDKPSK [H22P]: 1.16.
With YSSSKGSLRLCDMRAAALCDKESK [H22E], the protein stability index turned out to be 3.04.
For YSSSKGSLRLCDMRAAALCDKISK [H22I], the protein stability index was determined as 2.22.
For the variant YSSSKGSLRLCDMRAAALCDKSSK [H22S], the protein stability index worked out at 1.62.
YSSSKGSLRLCDMRAAALCDKRSK [H22R]: the protein stability index amounted to 1.56.
For YSSSKGSLRLCDMRAAALCDKNSK [H22N], the protein stability index was 2.04.
Regarding YSSSKGSLRLCDMRAAALCDKKSK [H22K], the protein stability index came out at 1.54.
Turning to YSSSKGSLRLCDMRAAALCDKLSK [H22L], the protein stability index is 1.6.
Regarding YSSSKGSLRLCDMRAAALCDKCSK [H22C], the protein stability index was found to be 2.17.
On to YSSSKGSLRLCDMRAAALCDKWSK [H22W], for which the protein stability index turned out to be 2.05.
With YSSSKGSLRLCDMRAAALCDKHSC [K24C], the protein stability index is 1.21.
YSSSKGSLRLCDMRAAALCDKHSP [K24P]: the protein stability index is 1.9.
On to YSSSKGSLRLCDMRAAALCDKHSS [K24S], for which the protein stability index came to 1.65.
Take YSSSKGSLRLCDMRAAALCDKHSA [K24A]: the protein stability index came to 1.85.
As for YSSSKGSLRLCDMRAAALCDKHSL [K24L], the protein stability index was 2.13.
For YSSSKGSLRLCDMRAAALCDKHSQ [K24Q] the value was 1.64.
For YSSSKGSLRLCDMRAAALCDKHSE [K24E], the protein stability index was determined as 1.96.
YSSSKGSLRLCDMRAAALCDKHSR [K24R]: the protein stability index is 1.9.
Next, YSSSKGSLRLCDMRAAALCDKHSD [K24D]: 2.22; YSSSKGSLRLCDMRAAALCDKHSM [K24M]: 2.11; YSSSKGSLRLCDMRAAALCDKHSF [K24F]: 1.36.
On to YSSSKGSLRLCDMRAAALCDKHSI [K24I], for which the protein stability index turned out to be 2.06.
For YSSSKGSLRLCDMRAAALCDKHSH [K24H] the value was 1.43; for YSSSKGSLRLCDMRAAALCDKHSN [K24N], 2.15.
For YSSSKGSLRLCDMRAAALCDCHSK [K21C], the protein stability index stood at 2.48.
As for YSSSKGSLRLCDMRAAALCDRHSK [K21R], the protein stability index came out at 1.69.
Next, YSSSKGSLRLCDMRAAALCDEHSK [K21E]: 1.26; YSSSKGSLRLCDMRAAALCDMHSK [K21M]: 1.96.
In the case of YSSSKGSLRLCDMRAAALCDYHSK [K21Y], the protein stability index was 1.95.
On to YSSSKGSLRLCDMRAAALCDVHSK [K21V], for which the protein stability index worked out at 2.63.
For the variant YSSSKGSLRLCDMRAAALCDPHSK [K21P], the protein stability index is 2.79.
On to YSSSKGSLRLCDMRAAALCDHHSK [K21H], for which the protein stability index is 2.01.
As for YSSSKGSLRLCDMRAAALCDAHSK [K21A], the protein stability index worked out at 2.35.
For YSSSKGSLRLCDMRAAALCDFHSK [K21F], the protein stability index turned out to be 1.95.
YSSSKGSLRLCDMRAAALCDGHSK [K21G]: the protein stability index was 2.12.
Consider YSSSKGSLRLCDMRAAALCDSHSK [K21S], for which the protein stability index was found to be 2.21.
For YSSSKGSLRLCDMRAAALCDWHSK [K21W], the protein stability index stood at 2.12.
For the variant YSSSKGSLRLCDMRAAALCDQHSK [K21Q], the protein stability index worked out at 1.82.
For YSSSKGSLRLCDMRAAALCDLHSK [K21L], the protein stability index came out at 1.29.
For YSSSKGSLRLCDMRAAALCDTHSK [K21T], the protein stability index worked out at 1.86.
For the variant YSSSKGSLRLCDMRAAALCDIHSK [K21I], the protein stability index was 1.48.
For YSSSKGSLRLCDMRAAALCDDHSK [K21D], the protein stability index is 1.78.
Regarding YSSSKGSLRLCDMRAAALCDNHSK [K21N], the protein stability index turned out to be 1.9.
